The test deals with Fc-Nxph1mat-N146D/N156D/N162D (rat) (UniProt Q63366). Put plainly: SPR; reversed experiment: purified Fc-Nxph1·LNS2-HA complex (formed by co-expression) bound covalently and randomly to a CMD 200m chip (EDC-NHS); running buffer 50 mM Tris pH 7.4; serial injections of elution solutions (pH 4, pH 8.9, 0.25–4 M NaCl, 5 mM EDTA, 6 M urea, 7 M guanidinium chloride); Reichert SR7000DC. (In general: In SPR one partner is held on a chip, and binding of the other changes the refractive index at the surface.)
UniProt Q63366, sequence (Q63366 22-271 N146D/N156D/N162D): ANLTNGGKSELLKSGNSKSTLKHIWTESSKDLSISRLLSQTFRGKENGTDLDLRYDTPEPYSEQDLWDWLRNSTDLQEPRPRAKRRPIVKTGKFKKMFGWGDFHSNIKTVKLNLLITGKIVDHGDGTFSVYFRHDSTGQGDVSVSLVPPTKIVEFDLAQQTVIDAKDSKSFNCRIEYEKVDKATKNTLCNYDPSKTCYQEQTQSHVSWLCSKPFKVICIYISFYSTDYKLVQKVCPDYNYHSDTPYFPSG

For the substance “C-terminally hemagglutinin (HA)-tagged LNS2 (domain or fragment)”, the percent of the complex released after injection of 1 M NaCl was found to be 9%.

These data come from paper PMC4183798.
